# Laboratory results from US20240261333A1, “NOVEL TARGETS FOR ENHANCING ANTI-TUMOR IMMUNITY” (THE BROAD INSTITUTE, INC., priority 2021, published 2024).
# Key:
# Assay in all cases: co-IP/MS, IgG control IP of N-FLAG B3GNT2 cell lysate
# RPL23A (human) = RPL23A (human) (UniProt P62750)
# GCN1 (human) = GCN1 (human) (UniProt Q92616)
# CALU (human) = CALU (human) (UniProt O43852)
# RPS7 (human) = RPS7 (human) (UniProt P62081)
# TUBB (human) = TUBB (human) (UniProt P07437)
# PDIA6 (human) = PDIA6 (human) (UniProt Q15084)
# TGM3 (human) = TGM3 (human) (UniProt Q08188)
# DNAJA1 (human) = DNAJA1 (human) (UniProt P31689)
# RPL13A (human) = RPL13A (human) (UniProt P40429)
# RPL24 (human) = RPL24 (human) (UniProt P83731)
# RPS5 (human) = RPS5 (human) (UniProt P46782)
# CAPZA1 (human) = CAPZA1 (human) (UniProt P52907)
# HSD17B12 (human) = HSD17B12 (human) (UniProt Q53GQ0)
# SQSTM1 (human) = SQSTM1 (human) (UniProt Q13501)
# RPL12 (human) = RPL12 (human) (UniProt P30050)
# RCN2 (human) = RCN2 (human) (UniProt Q14257)
# SLC25A4 (human) = SLC25A4 (human) (UniProt P12235)
# PRDX1 (human) = PRDX1 (human) (UniProt Q06830)
# IPO4 (human) = IPO4 (human) (UniProt Q8TEX9)
# CKAP4 (human) = CKAP4 (human) (UniProt Q07065)
# PRDX2 (human) = PRDX2 (human) (UniProt P32119)
# RPS3A (human) = RPS3A (human) (UniProt P61247)
# CANX (human) = CANX (human) (UniProt P27824)
# RPS12 (human) = RPS12 (human) (UniProt P25398)
# FKBP10 (human) = FKBP10 (human) (UniProt Q96AY3)
# RPL14 (human) = RPL14 (human) (UniProt P50914)
# RPS15 (human) = RPS15 (human) (UniProt P62841)
# LRP1 (human) = LRP1 (human) (UniProt Q07954)
# RPL30 (human) = RPL30 (human) (UniProt P62888)
# ATP1A1 (human) = ATP1A1 (human) (UniProt P05023)
# RPS9 (human) = RPS9 (human) (UniProt P46781)
# ERLIN2 (human) = ERLIN2 (human) (UniProt O94905)
# ERLIN1 (human) = ERLIN1 (human) (UniProt O75477)
# UQCRC2 (human) = UQCRC2 (human) (UniProt P22695)
# CASP14 (human) = CASP14 (human) (UniProt P31944)
# FAM3C (human) = FAM3C (human) (UniProt Q92520)
# PIP (human) = PIP (human) (UniProt P12273)
# PCBP1 (human) = PCBP1 (human) (UniProt Q15365)
# Sequence of SLC25A4 (human) (P12235 2-298 limits assumed): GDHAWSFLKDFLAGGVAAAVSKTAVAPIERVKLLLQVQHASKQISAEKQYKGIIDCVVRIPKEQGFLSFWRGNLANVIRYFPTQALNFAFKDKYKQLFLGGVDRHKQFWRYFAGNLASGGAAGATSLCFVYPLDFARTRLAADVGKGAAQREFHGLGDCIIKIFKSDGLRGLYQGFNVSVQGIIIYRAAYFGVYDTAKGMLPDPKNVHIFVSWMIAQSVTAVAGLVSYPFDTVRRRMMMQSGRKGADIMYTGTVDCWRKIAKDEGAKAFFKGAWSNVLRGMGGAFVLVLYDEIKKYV
# Sequence of FAM3C (human) (Q92520 25-227 limits assumed): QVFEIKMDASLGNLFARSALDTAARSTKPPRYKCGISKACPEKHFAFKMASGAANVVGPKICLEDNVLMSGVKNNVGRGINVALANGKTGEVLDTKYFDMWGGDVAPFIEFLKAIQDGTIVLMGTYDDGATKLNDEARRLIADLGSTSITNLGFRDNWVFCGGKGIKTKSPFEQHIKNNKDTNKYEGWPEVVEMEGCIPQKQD
# Sequence of TUBB (human) (P07437 whole entry): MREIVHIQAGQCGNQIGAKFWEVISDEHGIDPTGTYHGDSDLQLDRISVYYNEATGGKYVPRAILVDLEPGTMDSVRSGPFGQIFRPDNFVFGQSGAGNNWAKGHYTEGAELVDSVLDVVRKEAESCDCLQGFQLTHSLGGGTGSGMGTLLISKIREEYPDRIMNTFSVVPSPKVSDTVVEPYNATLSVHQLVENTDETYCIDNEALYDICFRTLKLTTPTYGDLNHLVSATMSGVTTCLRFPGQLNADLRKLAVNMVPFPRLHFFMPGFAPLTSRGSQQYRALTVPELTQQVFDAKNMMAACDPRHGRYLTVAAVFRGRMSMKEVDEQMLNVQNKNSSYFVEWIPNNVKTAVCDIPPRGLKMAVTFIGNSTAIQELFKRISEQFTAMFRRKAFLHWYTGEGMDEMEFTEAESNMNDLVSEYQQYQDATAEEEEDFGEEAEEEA
# Sequence of CANX (human) (P27824 21-592 limits assumed): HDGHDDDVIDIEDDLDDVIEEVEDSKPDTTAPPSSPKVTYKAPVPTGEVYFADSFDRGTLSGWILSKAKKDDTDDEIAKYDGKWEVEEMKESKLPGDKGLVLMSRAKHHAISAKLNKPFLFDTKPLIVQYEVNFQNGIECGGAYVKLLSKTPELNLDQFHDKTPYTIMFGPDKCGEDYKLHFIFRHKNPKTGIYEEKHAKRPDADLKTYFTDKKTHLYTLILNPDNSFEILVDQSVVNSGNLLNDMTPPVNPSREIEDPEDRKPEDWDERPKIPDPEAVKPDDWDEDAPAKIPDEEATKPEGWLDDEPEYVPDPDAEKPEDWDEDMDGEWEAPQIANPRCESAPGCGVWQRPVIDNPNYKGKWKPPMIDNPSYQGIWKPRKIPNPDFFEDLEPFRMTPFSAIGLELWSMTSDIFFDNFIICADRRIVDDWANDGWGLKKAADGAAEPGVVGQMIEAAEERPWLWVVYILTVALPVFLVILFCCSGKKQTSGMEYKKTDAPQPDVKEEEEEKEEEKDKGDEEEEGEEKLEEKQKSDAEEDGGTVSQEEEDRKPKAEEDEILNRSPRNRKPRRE
# Sequence of RCN2 (human) (Q14257 other isoform, or with tags, fused parts or gaps limits assumed): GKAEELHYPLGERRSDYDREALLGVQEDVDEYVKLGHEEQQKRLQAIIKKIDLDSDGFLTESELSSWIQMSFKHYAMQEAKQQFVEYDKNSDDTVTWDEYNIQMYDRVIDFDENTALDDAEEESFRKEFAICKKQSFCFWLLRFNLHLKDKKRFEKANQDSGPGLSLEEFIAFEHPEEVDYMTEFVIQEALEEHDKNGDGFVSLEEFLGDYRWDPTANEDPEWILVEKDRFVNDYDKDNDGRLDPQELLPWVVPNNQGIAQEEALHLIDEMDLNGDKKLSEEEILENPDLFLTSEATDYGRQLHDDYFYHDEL
# Sequence of FKBP10 (human) (Q96AY3 27-582 limits assumed): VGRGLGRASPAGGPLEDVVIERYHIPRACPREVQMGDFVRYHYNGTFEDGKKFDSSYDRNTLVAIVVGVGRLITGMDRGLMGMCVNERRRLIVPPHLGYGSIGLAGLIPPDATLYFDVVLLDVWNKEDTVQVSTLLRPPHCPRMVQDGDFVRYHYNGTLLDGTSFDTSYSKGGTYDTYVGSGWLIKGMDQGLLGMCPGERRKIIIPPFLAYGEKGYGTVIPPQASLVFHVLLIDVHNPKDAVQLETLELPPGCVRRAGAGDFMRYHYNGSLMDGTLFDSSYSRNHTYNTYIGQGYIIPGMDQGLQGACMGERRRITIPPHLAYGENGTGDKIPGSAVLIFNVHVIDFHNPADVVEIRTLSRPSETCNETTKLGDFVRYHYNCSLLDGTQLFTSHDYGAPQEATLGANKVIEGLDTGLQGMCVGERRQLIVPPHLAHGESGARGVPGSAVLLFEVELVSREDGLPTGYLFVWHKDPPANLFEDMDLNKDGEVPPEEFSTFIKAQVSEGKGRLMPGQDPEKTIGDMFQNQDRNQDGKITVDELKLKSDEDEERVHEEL
# Sequence of IPO4 (human) (Q8TEX9 whole entry): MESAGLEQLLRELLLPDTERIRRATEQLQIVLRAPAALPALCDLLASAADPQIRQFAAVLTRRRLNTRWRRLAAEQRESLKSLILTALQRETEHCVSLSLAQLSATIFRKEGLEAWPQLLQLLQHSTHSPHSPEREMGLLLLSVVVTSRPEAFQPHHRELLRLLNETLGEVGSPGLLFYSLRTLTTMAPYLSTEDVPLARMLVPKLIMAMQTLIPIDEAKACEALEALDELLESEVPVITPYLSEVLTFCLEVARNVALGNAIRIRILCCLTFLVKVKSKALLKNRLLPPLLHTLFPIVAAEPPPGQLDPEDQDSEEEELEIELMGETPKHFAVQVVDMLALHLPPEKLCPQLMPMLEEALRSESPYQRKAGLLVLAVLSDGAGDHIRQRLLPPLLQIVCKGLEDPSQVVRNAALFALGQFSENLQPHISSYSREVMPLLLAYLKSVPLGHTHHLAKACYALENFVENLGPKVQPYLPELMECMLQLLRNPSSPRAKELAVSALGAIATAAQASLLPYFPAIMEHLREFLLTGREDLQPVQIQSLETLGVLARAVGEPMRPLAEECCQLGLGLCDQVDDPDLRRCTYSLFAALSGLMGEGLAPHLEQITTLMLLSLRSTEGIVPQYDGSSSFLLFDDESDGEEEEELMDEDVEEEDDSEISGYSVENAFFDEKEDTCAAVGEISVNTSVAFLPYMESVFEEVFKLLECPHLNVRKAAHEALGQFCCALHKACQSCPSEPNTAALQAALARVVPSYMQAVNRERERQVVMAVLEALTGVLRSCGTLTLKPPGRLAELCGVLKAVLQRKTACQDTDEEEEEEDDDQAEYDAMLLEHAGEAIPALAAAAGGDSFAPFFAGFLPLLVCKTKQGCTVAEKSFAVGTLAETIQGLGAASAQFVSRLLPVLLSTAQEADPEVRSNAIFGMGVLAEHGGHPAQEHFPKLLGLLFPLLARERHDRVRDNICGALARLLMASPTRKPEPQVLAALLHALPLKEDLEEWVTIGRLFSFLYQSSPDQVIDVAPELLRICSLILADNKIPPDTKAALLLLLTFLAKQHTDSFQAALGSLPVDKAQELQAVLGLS
# Sequence of PRDX2 (human) (P32119 2-198 limits assumed): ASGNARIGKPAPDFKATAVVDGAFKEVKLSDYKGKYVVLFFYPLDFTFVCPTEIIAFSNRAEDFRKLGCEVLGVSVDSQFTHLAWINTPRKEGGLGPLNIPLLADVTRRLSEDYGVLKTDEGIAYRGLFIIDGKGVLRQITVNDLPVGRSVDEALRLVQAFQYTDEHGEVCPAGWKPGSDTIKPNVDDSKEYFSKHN
# Sequence of TGM3 (human) (Q08188 2-693 limits assumed): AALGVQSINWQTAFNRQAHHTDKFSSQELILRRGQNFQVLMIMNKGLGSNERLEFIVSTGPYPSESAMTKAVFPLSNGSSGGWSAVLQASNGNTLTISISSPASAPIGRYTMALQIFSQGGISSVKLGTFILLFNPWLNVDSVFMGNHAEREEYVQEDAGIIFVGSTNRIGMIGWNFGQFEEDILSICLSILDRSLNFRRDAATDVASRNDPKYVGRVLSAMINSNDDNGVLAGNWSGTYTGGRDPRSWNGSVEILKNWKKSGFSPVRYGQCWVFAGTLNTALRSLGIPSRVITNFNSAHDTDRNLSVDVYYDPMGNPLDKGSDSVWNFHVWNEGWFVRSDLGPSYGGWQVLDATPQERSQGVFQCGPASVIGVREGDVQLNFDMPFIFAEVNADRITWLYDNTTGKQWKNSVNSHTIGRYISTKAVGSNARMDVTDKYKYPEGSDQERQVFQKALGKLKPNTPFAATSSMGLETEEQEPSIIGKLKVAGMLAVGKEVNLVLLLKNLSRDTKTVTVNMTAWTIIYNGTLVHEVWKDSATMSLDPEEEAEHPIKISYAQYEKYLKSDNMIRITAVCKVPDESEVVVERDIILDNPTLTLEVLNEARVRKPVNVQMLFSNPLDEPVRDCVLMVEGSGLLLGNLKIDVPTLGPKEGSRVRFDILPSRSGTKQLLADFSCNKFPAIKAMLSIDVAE
# Sequence of PDIA6 (human) (Q15084 20-440 limits assumed): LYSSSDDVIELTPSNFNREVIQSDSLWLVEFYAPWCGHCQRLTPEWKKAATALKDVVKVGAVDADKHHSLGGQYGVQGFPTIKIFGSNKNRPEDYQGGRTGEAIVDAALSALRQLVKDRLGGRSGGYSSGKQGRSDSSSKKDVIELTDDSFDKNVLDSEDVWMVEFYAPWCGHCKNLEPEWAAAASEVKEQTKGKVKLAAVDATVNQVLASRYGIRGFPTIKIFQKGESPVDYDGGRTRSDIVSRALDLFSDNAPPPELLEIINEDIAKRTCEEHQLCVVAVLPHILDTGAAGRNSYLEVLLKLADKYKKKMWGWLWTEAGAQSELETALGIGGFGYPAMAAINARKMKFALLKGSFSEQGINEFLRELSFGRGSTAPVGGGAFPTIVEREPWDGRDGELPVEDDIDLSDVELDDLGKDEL
# Sequence of PIP (human) (P12273 29-146 limits assumed): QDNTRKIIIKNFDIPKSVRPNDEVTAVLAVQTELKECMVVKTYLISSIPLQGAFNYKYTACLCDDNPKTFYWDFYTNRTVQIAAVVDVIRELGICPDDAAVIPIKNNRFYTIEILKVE
substance,measurement,setting,value
IgG control (Millipore Sigma 12-371) (antibody),co-IP mass spectrometry count,RPL23A (human),3
same,co-IP mass spectrometry count,GCN1 (human),0
same,co-IP mass spectrometry count,CALU (human),0
same,co-IP mass spectrometry count,RPS7 (human),2
same,co-IP mass spectrometry count,TUBB (human),10
same,co-IP mass spectrometry count,PDIA6 (human),0
same,co-IP mass spectrometry count,TGM3 (human),2
same,co-IP mass spectrometry count,DNAJA1 (human),0
same,co-IP mass spectrometry count,RPL13A (human),0
same,co-IP mass spectrometry count,RPL24 (human),4
same,co-IP mass spectrometry count,RPS5 (human),3
same,co-IP mass spectrometry count,CAPZA1 (human),0
same,co-IP mass spectrometry count,HSD17B12 (human),0
same,co-IP mass spectrometry count,SQSTM1 (human),0
same,co-IP mass spectrometry count,RPL12 (human),4
same,co-IP mass spectrometry count,RCN2 (human),0
same,co-IP mass spectrometry count,SLC25A4 (human),0
same,co-IP mass spectrometry count,PRDX1 (human),5
same,co-IP mass spectrometry count,IPO4 (human),0
same,co-IP mass spectrometry count,CKAP4 (human),0
same,co-IP mass spectrometry count,PRDX2 (human),5
same,co-IP mass spectrometry count,RPS3A (human),9
same,co-IP mass spectrometry count,CANX (human),0
same,co-IP mass spectrometry count,RPS12 (human),0
same,co-IP mass spectrometry count,FKBP10 (human),0
same,co-IP mass spectrometry count,RPL14 (human),7
same,co-IP mass spectrometry count,RPS15 (human),5
same,co-IP mass spectrometry count,LRP1 (human),0
same,co-IP mass spectrometry count,RPL30 (human),6
same,co-IP mass spectrometry count,ATP1A1 (human),0
same,co-IP mass spectrometry count,RPS9 (human),3
same,co-IP mass spectrometry count,ERLIN2 (human),0
same,co-IP mass spectrometry count,ERLIN1 (human),0
same,co-IP mass spectrometry count,UQCRC2 (human),0
same,co-IP mass spectrometry count,CASP14 (human),3
same,co-IP mass spectrometry count,FAM3C (human),0
same,co-IP mass spectrometry count,PIP (human),0
same,co-IP mass spectrometry count,PCBP1 (human),0
